IntAct's records for PubMed 19955438

B1: 1-phosphatidylinositol 4,5-bisphosphate phosphodiesterase gamma-1 (Bos taurus (Bovine)), P08487 (parent)
chain: MAGAASPCANGCGPSAPSDAEVVHLCRSLEVGTVMTLFYSKKSQRPERKTFQVKLETRQITWSRGADKIEGAIDIREIKEIRPGKTSRDFDRYQEDPAFRPDQSHCFVILYGMEFRLKTLSLQATSEDEVNMWIRGLTWLMEDTLQAATPLQIERWLRKQFYSVDRNREDRISAKDLKNMLSQVNYRVPNMRFLRERLTDLEQRTSDITYGQFAQLYRSLMYSAQKTMDLPFLEASALRAGERPELCRVSLPEFQQFLLEYQGELWAVDRLQVQEFMLSFLRDPLREIEEPYFFLDEFVTFLFSKENSIWNSQLDEVCPDTMNNPLSHYWISSSHNTYLTGDQFSSESSLEAYARCLRMGCRCIELDCWDGPDGMPVIYHGHTLTTKIKFSDVLHTIKEHAFVASEYPVILSIEDHCSIAQQRNMAQYFKKVLGDTLLTKPVDIAADGLPSPNQLKRKILIKHKKLAEGSAYEEVPTSVMYSENDISNSIKNGILYLEDPVNHEWYPHYFVLTSSKIYYSEETSSDQGNEDEEEPKEASGSTELHSNEKWFHGKLGAGRDGRHIAERLLTEYCIETGAPDGSFLVRESETFVGDYTLSFWRNGKVQHCRIHSRQDAGTPKFFLTDNLVFDSLYDLITHYQQVPLRCNEFEMRLSEPVPQTNAHESKEWYHASLTRAQAEHMLMRVPRDGAFLVRKRNEPNSYAISFRAEGKIKHCRVQQEGQTVMLGNSEFDSLVDLISYYEKHPLYRKMKLRYPINEEALEKIGTAEPDYGALYEGRNPGFYVEANPMPTFKCAVKALFDYKAQREDELTFTKSAIIQNVEKQEGGWWRGDYGGKKQLWFPSNYVEEMVSPAALEPEREHLDENSPLGDLLRGVLDVPACQIAVRPEGKNNRLFVFSISMASVAHWSLDVAADSQEELQDWVKKIREVAQTADARLTEGKMMERRKKIALELSELVVYCRPVPFDEEKIGTERACYRDMSSFPETKAEKYVNKAKGKKFLQYNRLQLSRIYPKGQRLDSSNYDPLPMWICGSQLVALNFQTPDKPMQMNQALFLAGGHCGYVLQPSVMRDEAFDPFDKSSLRGLEPCAICIEVLGARHLPKNGRGIVCPFVEIEVAGAEYDSIKQKTEFVVDNGLNPVWPAKPFHFQISNPEFAFLRFVVYEEDMFSDQNFLAQATFPVKGLKTGYRAVPLKNNYSEGLELASLLVKIDVFPAKQENGDLSPFGGASLRERSCDASGPLFHGRAREGSFEARYQQPFEDFRISQEHLADHFDGRDRRTPRRTRVNGDNRL

Variants of: B1
Details: with itk_mouse Itk

| effect of a mutation on the interaction | Variant |
| --- | --- |
| decreasing interaction | K749A;R753A |
| decreasing interaction | R748A;K751A |
| disrupting interaction | E709A;K711A |
